In patent US20240383980A1 (VITRUVIAE, published 2024):

Experiments:
recombinant human CD25 [1] = target: T1, recombinant human CD25 (human, UniProt P01589 22-213, limits assumed); test: SPR (Biacore T200), human CD25 immobilized on CM5 chip, VP100 injected at 3.125-100 nM, 1:1 fit
T1 construct: also called IL-2 receptor subunit a
T1 sequence (looked up): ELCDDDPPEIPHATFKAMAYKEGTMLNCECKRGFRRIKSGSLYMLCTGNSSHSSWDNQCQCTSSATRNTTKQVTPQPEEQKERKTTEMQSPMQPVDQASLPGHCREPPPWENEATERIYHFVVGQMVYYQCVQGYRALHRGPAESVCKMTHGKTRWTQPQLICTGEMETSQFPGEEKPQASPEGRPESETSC

recombinant human CD25 [2] = target: T1, recombinant human CD25; test: SPR; human CD25 immobilized on CM5 chip (legend of FIG. 8a)
[3] = target: T2, recombinant human CD3de (Delta epsilon fusion) (human, UniProt P04234 22-105; P07766 23-126); test: SPR, Biacore T200; human CD3de immobilized on CM5 chip
T2 construct: It is written here as two chains; also called recombinant human CD3de (delta epsilon subunits)
T2 sequence (P04234 22-105, stated change not applied, chain 1 of 2): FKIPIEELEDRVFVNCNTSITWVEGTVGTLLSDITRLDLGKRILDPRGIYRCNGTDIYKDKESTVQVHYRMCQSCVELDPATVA
T2 sequence (P07766 23-126, stated change not applied, chain 2 of 2): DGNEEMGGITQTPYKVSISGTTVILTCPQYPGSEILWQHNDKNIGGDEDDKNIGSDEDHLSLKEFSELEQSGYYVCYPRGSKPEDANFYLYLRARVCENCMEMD

[4] = target: T2, recombinant human CD3de (Delta epsilon …); test: SPR, Biacore T200; human CD3de immobilized on CM5 chip; 1:1 fit
Method: (§1) The binding affinities of VP103 (chimeric alpaca anti-CD3 VHH F10-human IgG4) and VP104 (Humanized F10A VHH (C55A)-IgG4) for recombinant human CD3de (delta epsilon subunits) and recombinant cynomolgus CD3de (delta epsilon subunits) were assessed by SPR on a Biacore T200 (GE Healthcare). FIGS. 13a and 13b show the SPR sensorgrams for VP103 to human CD3de and cynomolgus CD3de immobilized onto the surface of CM5 sensor chip. FIGS. 14a and 14b show the SPR sensorgrams for VP104 to human CD3de and cynomolgus CD3de immobilized onto the surface of CM5 sensor chip. The data were fit with a 1:1 fitting model. […] These constructs can also be paired with anti-CD25 VP008, which is based on basiliximab, which is known to cross-react with cynomolgus CD25.

[5] = target: T3, recombinant cynomolgus CD3de (delta epsilon subunits) (cynomolgus, UniProt Q95LI8 22-105; Q95LI5 22-117); test: SPR (Biacore T200), cynomolgus CD3de immobilized on CM5 chip, VP104 injected at 3.125-100 nM, 1:1 fit
T3 sequence (Q95LI8 22-105, stated change not applied, chain 1 of 2): as the sequence (P04234 22-105, stated change not applied, chain 1 of 2) above, with I5V, N15K, I20V, S32T, D33N, I34N, T64A, S74N, V83L counted along it
T3 sequence (Q95LI5 22-117, stated change not applied, chain 2 of 2): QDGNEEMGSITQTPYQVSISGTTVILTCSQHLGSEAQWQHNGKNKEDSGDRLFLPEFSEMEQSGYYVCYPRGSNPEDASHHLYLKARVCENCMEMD
Method: as §1

[6] = target: T3, recombinant cynomolgus CD3de (delta …); test: SPR, Biacore T200; cynomolgus CD3de immobilized on CM5 chip; 1:1 fit
Method: as §1

[7] = target: T2, recombinant human CD3de (Delta epsilon …); test: SPR (Biacore T200), human CD3de immobilized on CM5 chip, VP104 injected at 3.125-100 nM, 1:1 fit
Method: as §1

[8] = target: T2, recombinant human CD3de (Delta epsilon …); test: SPR (Biacore T200), human CD3de immobilized on CM5 chip, VP103 injected at 3.125-100 nM, 1:1 fit
Method: as §1

[9] = target: T3, recombinant cynomolgus CD3de (delta …); test: SPR (Biacore T200), cynomolgus CD3de immobilized on CM5 chip, VP103 injected at 3.125-100 nM, 1:1 fit
Method: as §1

recombinant human CD25 [10] = target: T1, recombinant human CD25; test: SPR; human CD25 immobilized on CM5 chip (legend of FIG. 8b)
recombinant human CD25 [11] = target: T1, recombinant human CD25; test: SPR, Biacore T200; human CD25 immobilized on CM5 chip; 1:1 fit
recombinant human CD25 [12] = target: T1, recombinant human CD25; test: SPR (Biacore T200), human CD25 immobilized on CM5 chip, VP101 injected at 3.125-100 nM, 1:1 fit
recombinant human CD25 [13] = target: T1, recombinant human CD25; test: SPR, Biacore T200; human CD25 immobilized on CM5 chip

B1: VP100 (ch7G7-IgG4) (antibody, V domains shown)
VH: EVQLVESGGDLVQPRGSLKLSCAASGFTFSSYGMSWVRQTPDKRLELVATINGYGDTTYYPDSVKGRFTISRDNAKNTLYLQMSSLKSEDTAMYFCARDRDYGNSYYYALDYWGQGTSVTVSS
VL: QIVLSQSPAILSASPGERVTMTCRASSSVSFMHWLQQKPGSSPKPWIYATSNLASGVSARFSGSGSGTSYSLTITRVEAEDAATYYCQQWSSNPPAFGGGTKLEIKR
notes: Chimeric 7G7 on human IgG4
Kd (recombinant human CD25 [1]): 0.009 nM
koff (recombinant human CD25 [1]): 3.56e-06 s⁻¹
kon (recombinant human CD25 [1]): 392000 M⁻¹ s⁻¹
Kd (recombinant human CD25 [2]): 3.8 nM

B2: VP001 (Teplizumab H:C114S with V-IGG4-A) (antibody, human IgG4 S228P, kappa, F234A L235A, V domains shown)
VH: QVQLVQSGGGVVQPGRSLRLSCKASGYTFTRYTMHWVRQAPGKGLEWIGYINPSRGYTNYNQKVKDRFTISRDNSKNTAFLQMDSLRPEDTGVYFCARYYDDHYSLDYWGQGTPVTVSS
VL: DIQMTQSPSSLSASVGDRVTITCSASSSVSYMNWYQQTPGKAPKRWIYDTSKLASGVPSRFSGSGSGTDYTFTISSLQPEDIATYYCQQWSSNPFTFGQGTKLQITR
notes: 4 chain IgG format (chVIT-100), IgG4 Fc with S228P, F234A, L235A, K322A; also called chVIT-100
Kd [3]: 5.2 nM

B3: VP104 (Humanized F10A VHH (C55A)-IgG4) (Fc fusion)
chain: EVQLLESGGGLVQPGGSLRLSCAASGFTLDDYAIGWVRQAPGKGREGVSAIRRSDGHTYYADSVKGRFTISSDNSKNTVYLQMNSLRAEDTAVYYCAAGTGWGRYFYAGMDYWGQGTLVTVSSGGGGSGGGGSGGGGSKYGPPCPPCPAPEAAGGPSVFLFPPKPKDTLMISRTPEVTCVVVDVSQEDPEVQFNWYVDGVEVHNAKTKPREEQFNSTYRVVSVLTVLHQDWLNGKEYKCAVSNKGLPSSIEKTISKAKGQPREPQVYTLPPSQEEMTKNQVSLTCLVKGFYPSDIAVEWESNGQPENNYKTTPPVLDSDGSFFLYSRLTVDKSRWQEGNVFSCSVMHEALHNHYTQKSLSLSLGK
notes: also called humanized Anti-CD3 nanobody F10 with free Cys removed and with V-IGG4-A-Fc
Kd [4]: 14.2 nM
koff [5]: 0.0516 s⁻¹
kon [5]: 3.89e+06 M⁻¹ s⁻¹
Kd [6]: 13.3 nM
koff [7]: 0.0651 s⁻¹
kon [7]: 4.58e+06 M⁻¹ s⁻¹

B4: VP103 (chimeric alpaca anti-CD3 VHH F10-human IgG4) (Fc fusion)
chain: QVQLQESGGGLVQAGGSLTLSCAASGFTLDDYAIGWFRQAPGKEREGVSCIRRSDGHTYSADSVKGRFTISSDNAKNTVYLQMNNLKPEDTAVYYCAAGTGWGRYFYAGMDYWGKGTQVTVSSGGGGSGGGGSGGGGSKYGPPCPPCPAPEAAGGPSVFLFPPKPKDTLMISRTPEVTCVVVDVSQEDPEVQFNWYVDGVEVHNAKTKPREEQFNSTYRVVSVLTVLHQDWLNGKEYKCAVSNKGLPSSIEKTISKAKGQPREPQVYTLPPSQEEMTKNQVSLTCLVKGFYPSDIAVEWESNGQPENNYKTTPPVLDSDGSFFLYSRLTVDKSRWQEGNVFSCSVMHEALHNHYTQKSLSLSLGK
notes: VHH-linker-IgG4 Fc chain; also called Alpaca Anti-CD3 nanobody F10 with V-IGG4-A-Fc
koff [8]: 0.000972 s⁻¹
kon [8]: 261000 M⁻¹ s⁻¹
koff [9]: 0.00112 s⁻¹
kon [9]: 406000 M⁻¹ s⁻¹
Kd [4]: 3.7 nM
Kd [6]: 2.8 nM

B5: VP101 (hu7G7-IgG4) (antibody, V domains shown)
VH: EVQLVESGGGLVQPGGSLRLSCAASGFTFSSYGMSWVRQAPGKRLELVATINGYGDTTYYPDSVKGRFTISRDNAKNTLYLQMNSLRAEDTAVYYCARDRDYGNSYYYALDYWGQGTLVTVSS
VL: EIVLTQSPATLSLSPGERATLSCRASSSVSFMHWLQQKPGQAPKPLIYATSNLASGIPARFSGSGSGTDYTLTISSLEPEDFAVYYCQQWSSNPPAFGGGTKVEIKR
notes: Humanized 7G7 on human IgG4
Kd (recombinant human CD25 [10]): < 1 nM
Kd (recombinant human CD25 [11]): < 0.001 nM
Kd (recombinant human CD25 [12]): 0.001 nM
koff (recombinant human CD25 [12]): 1.64e-07 s⁻¹
kon (recombinant human CD25 [12]): 126000 M⁻¹ s⁻¹

B6: VP002 (huOKT3 VCD3-L3H3 with V-IGG4-A) (antibody, human IgG4 S228P, kappa, F234A L235A, V domains shown)
VH: QVQLVQSGAEVKKPGASVKVSCKASGYTFTRYTMHWVRQSPGQGLEWMGYINPSRGYTNYNQKFQGRVTMTTDKSTSTAYMELSSLRSEDTAVYYCARYYDDHYSLDYWGQGTTVTVSS
VL: EIQLTQSPATLSLSPGERATLSCRASSSVSYMNWYQQKPGQAPRRWIYDTSKLATGIPARFSGSGSGTDYTLTISSLEPEDAAVYYCQQWSSNPFTFGQGTKLEIKR
notes: 4 chain IgG format (huVIT-100), IgG4; also called huOKT3 H3L3; huVIT-100
Kd [3]: 12.4 nM

B7: VP008 (VCD25-L2H2 with V-IGG4-B) (antibody, human IgG4 S228P, kappa, F234A L235A, V domains shown)
VH: QVQLVQSGAEVKKPGASVKVSCKASGYSFTRYWMHWVRQPPGQRLEWMGAIYPGNSDTSYSQKFEGRVTITADTSASTAYMELSSLRSEDTAVYYCSRDYGYYFDFWGQGTTVTVSS
VL: EIVLTQSPDFQSVTPKEKVTITCRASSSRSYMQWYQQKPDQSPKRLIYDTSKSASGVPSRFSGSGSGTDYTLTINSLEAEDAATYYCHQRSSYTFGQGTKLEIKR
notes: 4 chain IgG format (huVIT-101), IgG4; also called huBasiliximab H2L2; huVIT-101
Kd (recombinant human CD25 [13]): 1.2 nM
